Source: patent publication US20230407373A1 (priority 2020, published 2023)
Like-named read-outs stand apart in the source and are kept apart here.

Tests used:
Assay type in all cases: binding
[1] = tested on: gRNA of HCoV-OC43
[2] = tested on: SARS-CoV-2 gRNA; conditions: for target (unweighted spectral count of the protein in the RNP capture): LC-MS/MS, Probe I sample (first 199 lines of Table 2)
[3] = tested on: HCoV-OC43 gRNA and sgRNA; conditions: for target (unweighted spectral count, OC43 Probe II capture) / target (unweighted spectral count): tested against no-probe control; for target (unweighted spectral count, OC43 Probe II capture): FDR<10%; for target (unweighted spectral count): OC43 Probe II, 24 hpi (type n_24_v), infected cells

B1: POLDIP3: host protein, UniProt Q9BY77 (protein, UniProt Q9BY77 2-421, looked up)
Polymerase delta-interacting …: ADISLDELIRKRGAAAKGRLNARPGVGGVRSRVGIQQGLLSQSTRTATFQQRFDARQKIGLSDARLKLGVKDAREKLLQKDARFRIKGKVQDAREMLNSRKQQTTVPQKPRQVADAREKISLKRSSPAAFINPPIGTVTPALKLTKTIQVPQQKAMAPLHPHPAGMRINVVNNHQAKQNLYDLDEDDDGIASVPTKQMKFAASGGFLHHMAGLSSSKLSMSKALPLTKVVQNDAYTAPALPSSIRTKALTNMSRTLVNKEEPPKELPAAEPVLSPLEGTKMTVNNLHPRVTEEDIVELFCVCGALKRARLVHPGVAEVVFVKKDDAITAYKKYNNRCLDGQPMKCNLHMNGNVITSDQPILLRLSDSPSMKKESELPRRVNSASSSNPPAEVDPDTILKALFKSSGASVTTQPTEFKIKL
target (spectral count) ([1]; type g_36_m, HCoV-OC43-infected HCT-8 cells, 36 hpi, Probe I): 7 | background (spectral count) ([1]; type g_36_m, uninfected-probe control, 36 hpi, Probe I): 1 | target (spectral count, OC43 Probe I RNP capture) ([1]; type n_48_v: 48 hours post-infection, infected cells, OC43 Probe I, unweighted spectral count): 7 | background (spectral count, no-probe control) ([1]; type n_48_v: 48 hours post-infection, no-probe control on infected cells): 1 | target (unweighted spectral count of the protein in the RNP capture) ([2]; […]): 5

B2: MARS2 (protein, UniProt Q96GW9 30-593, looked up)
Methionine--tRNA ligase, …: SSGSLSAGDDACDVRAYFTTPIFYVNAAPHIGHLYSALLADALCRHRRLRGPSTAATRFSTGTDEHGLKIQQAAATAGLAPTELCDRVSEQFQQLFQEAGISCTDFIRTTEARHRVAVQHFWGVLKSRGLLYKGVYEGWYCASDECFLPEAKVTQQPGPSGDSFPVSLESGHPVSWTKEENYIFRLSQFRKPLQRWLRGNPQAITPEPFHHVVLQWLDEELPDLSVSRRSSHLHWGIPVPGDDSQTIYVWLDALVNYLTVIGYPNAEFKSWWPATSHIIGKDILKFHAIYWPAFLLGAGMSPPQRICVHSHWTVCGQKMSKSLGNVVDPRTCLNRYTVDGFRYFLLRQGVPNWDCDYYDEKVVKLLNSELADALGGLLNRCTAKRINPSETYPAFCTTCFPSEPGLVGPSVRAQAEDYALVSAVATLPKQVADHYDNFRIYKALEAVSSCVRQTNGFVQRHAPWKLNWESPVDAPWLGTVLHVALECLRVFGTLLQPVTPSLADKLLSRLGVSASERSLGELYFLPRFYGHPCPFEGRRLGPETGLLFPRLDQSRTWLVKAHRT
target (unweighted spectral count of the protein in the RNP capture) ([2]; […]): 6

B3: DDX3X (protein, UniProt O00571 2-662, looked up)
ATP-dependent RNA helicase …: SHVAVENALGLDQQFAGLDLNSSDNQSGGSTASKGRYIPPHLRNREATKGFYDKDSSGWSSSKDKDAYSSFGSRSDSRGKSSFFSDRGSGSRGRFDDRGRSDYDGIGSRGDRSGFGKFERGGNSRWCDKSDEDDWSKPLPPSERLEQELFSGGNTGINFEKYDDIPVEATGNNCPPHIESFSDVEMGEIIMGNIELTRYTRPTPVQKHAIPIIKEKRDLMACAQTGSGKTAAFLLPILSQIYSDGPGEALRAMKENGRYGRRKQYPISLVLAPTRELAVQIYEEARKFSYRSRVRPCVVYGGADIGQQIRDLERGCHLLVATPGRLVDMMERGKIGLDFCKYLVLDEADRMLDMGFEPQIRRIVEQDTMPPKGVRHTMMFSATFPKEIQMLARDFLDEYIFLAVGRVGSTSENITQKVVWVEESDKRSFLLDLLNATGKDSLTLVFVETKKGADSLEDFLYHEGYACTSIHGDRSQRDREEALHQFRSGKSPILVATAVAARGLDISNVKHVINFDLPSDIEEYVHRIGRTGRVGNLGLATSFFNERNINITKDLLDLLVEAKQEVPSWLENMAYEHHYKGSSRGRSKSSRFSGGFGARDYRQSSGASSSSFSSSRASSSRSGGGGHGSSRGFGGGGYGGFYNSDGYGGNYNSQGVDWWGN
target (unweighted spectral count, OC43 Probe II capture) ([3]; 36 hpi, type n_36_v): 7 | target (unweighted spectral count) [3]: 7 | target (unweighted spectral count, OC43 Probe II) ([3]; type n_48_v, 48 hpi, OC43 Probe II capture on infected cells): 11 | background (unweighted spectral count, no-probe control) ([3]; type n_48_v, 48 hpi, no-probe control on infected cells): 2 | target (unweighted spectral count of the protein in the RNP capture) ([2]; […]): 17

B4: FAM1204 (protein, UniProt Q9NZB2 1-1118, looked up)
Constitutive coactivator of …: MGVQGFQDYIEKHCPSAVVPVELQKLARGSLVGGGRQRPPQTPLRLLVDADNCLHRLYGGFYTDWVSGGQWNHMLGYLAALAKACFGGNIELFVFFNGALEKARLHEWVKRQGNERQTAQQIVSHVQNKGTPPPKVWFLPPVCMAHCIRLALIRFHVKVAQSIEDHHQEVIGFCRENGFHGLVAYDSDYALCNIPYYFSAHALKLSRNGKSLTTSQYLMHEVAKQLDLNPNRFPIFAALLGNHILPDEDLASFHWSLLGPEHPLASLKVRAHQLVLPPCDVVIKAVADYVRNIQDTSDLDAIAKDVFQHSQSRTDDKVIRFKRAIGYYSATSKPMSFHPPHYLAARPGPFGMPGMVPPHVPPQMLNIPQTSLQAKPVAPQVPSPGGAPGQGPYPYSLSEPAPLTLDTSGKNLTEQNSYSNIPHEGKHTPLYERSSPINPAQSGSPNHVDSAYFPGSSTSSSSDNDEGSGGATNHISGNKIGWEKTGSHSEPQARGDPGDQTKAEGSSTASSGSQLAEGKGSQMGTVQPIPCLLSMPTRNHMDITTPPLPPVAPEVLRVAEHRHKKGLMYPYIFHVLTKGEIKIAVSIEDEANKDLPPAALLYRPVRQYVYGVLFSLAESRKKTERLAFRKNRLPPEFSPVIIKEWAAYKGKSPQTPELVEALAFREWTCPNLKRLWLGKAVEDKNRRMRAFLACMRSDTPAMLNPANVPTHLMVLCCVLRYMVQWPGARILRRQELDAFLAQALSPKLYEPDQLQELKIENLDPRGIQLSALFMSGVDMALFANDACGQPIPWEHCCPWMYFDGKLFQSKLLKASREKTPLIDLCDGQADQAAKVEKMRQSVLEGLSFSRQSHTLPFPPPPALPFYPASAYPRHFGPVPPSQGRGRGFAGVCGFGGPYGETVATGPYRAFRVAAASGHCGAFSGSDSSRTSKSQGGVQPIPSQGGKLEIAGTVVGHWAGSRRGRGGRGPFPLQVVSVGGPARGRPRGVISTPVIRTFGRGGRYYGRGYKNQAAIQGRPPYAASAEEVAKELKSKSGESKSSAMSSDGSLAENGVMAEEKPAPQMNGSTGDARAPSHSESALNNDSKTCNTNPHLNALSTDSACRREAALEAAVLNKEE
target (unweighted spectral count of the protein in the RNP capture) ([2]; […]): 37

B5: CON_P35908 (protein, UniProt P35908 1-639, looked up)
Keratin, type II cytoskeletal …: MSCQISCKSRGRGGGGGGFRGFSSGSAVVSGGSRRSTSSFSCLSRHGGGGGGFGGGGFGSRSLVGLGGTKSISISVAGGGGGFGAAGGFGGRGGGFGGGSSFGGGSGFSGGGFGGGGFGGGRFGGFGGPGGVGGLGGPGGFGPGGYPGGIHEVSVNQSLLQPLNVKVDPEIQNVKAQEREQIKTLNNKFASFIDKVRFLEQQNQVLQTKWELLQQMNVGTRPINLEPIFQGYIDSLKRYLDGLTAERTSQNSELNNMQDLVEDYKKKYEDEINKRTAAENDFVTLKKDVDNAYMIKVELQSKVDLLNQEIEFLKVLYDAEISQIHQSVTDTNVILSMDNSRNLDLDSIIAEVKAQYEEIAQRSKEEAEALYHSKYEELQVTVGRHGDSLKEIKIEISELNRVIQRLQGEIAHVKKQCKNVQDAIADAEQRGEHALKDARNKLNDLEEALQQAKEDLARLLRDYQELMNVKLALDVEIATYRKLLEGEECRMSGDLSSNVTVSVTSSTISSNVASKAAFGGSGGRGSSSGGGYSSGSSSYGSGGRQSGSRGGSGGGGSISGGGYGSGGGSGGRYGSGGGSKGGSISGGGYGSGGGKHSSGGGSRGGSSSGGGYGSGGGGSSSVKGSSGEAFGSSVTFSFR
target (unweighted spectral count, OC43 Probe II capture) ([3]; 24 hpi, type n_24_v): 4 | target (unweighted spectral count of the protein in the RNP capture) ([2]; […]): 6

B6: CKAP4: host protein, UniProt Q07065 (protein, UniProt Q07065 1-602, looked up)
Cytoskeleton-associated …: MPSAKQRGSKGGHGAASPSEKGAHPSGGADDVAKKPPPAPQQPPPPPAPHPQQHPQQHPQNQAHGKGGHRGGGGGGGKSSSSSSASAAAAAAAASSSASCSRRLGRALNFLFYLALVAAAAFSGWCVHHVLEEVQQVRRSHQDFSRQREELGQGLQGVEQKVQSLQATFGTFESILRSSQHKQDLTEKAVKQGESEVSRISEVLQKLQNEILKDLSDGIHVVKDARERDFTSLENTVEERLTELTKSINDNIAIFTEVQKRSQKEINDMKAKVASLEESEGNKQDLKALKEAVKEIQTSAKSREWDMEALRSTLQTMESDIYTEVRELVSLKQEQQAFKEAADTERLALQALTEKLLRSEESVSRLPEEIRRLEEELRQLKSDSHGPKEDGGFRHSEAFEALQQKSQGLDSRLQHVEDGVLSMQVASARQTESLESLLSKSQEHEQRLAALQGRLEGLGSSEADQDGLASTVRSLGETQLVLYGDVEELKRSVGELPSTVESLQKVQEQVHTLLSQDQAQAARLPPQDFLDRLSSLDNLKASVSQVEADLKMLRTAVDSLVAYSVKIETNENNLESAKGLLDDLRNDLDRLFVKVEKIHEKV
target (unweighted spectral count, OC43 Probe II capture) ([3]; 36 hpi, type n_36_v): 12 | target (unweighted spectral count) [3]: 8 | target (spectral count) ([3]; type s_36_m, HCoV-OC43-infected HCT-8 cells, 36 hpi, Probe II): 12 | background (spectral count) ([3]; type s_36_m, uninfected-probe control, 36 hpi, Probe II): 1 | target (unweighted spectral count in RNP capture) ([2]; Probe I capture, […], LC-MS/MS LFQ): 5 | background (unweighted spectral count in control) ([2]; no-probe control pull-down, used as background for Probe I): 1

B7: GRSF1 (protein, UniProt Q12849 118-480, looked up)
G-rich sequence factor 1: SQESKTTYLEDLPPPPEYELAPSKLEEEVDDVFLIRAQGLPWSCTMEDVLNFFSDCRIRNGENGIHFLLNRDGKRRGDALIEMESEQDVQKALEKHRMYMGQRYVEVYEINNEDVDALMKSLQVKSSPVVNDGVVRLRGLPYSCNEKDIVDFFAGLNIVDITFVMDYRGRRKTGEAYVQFEEPEMANQALLKHREEIGNRYIEIFPSRRNEVRTHVGSYKGKKIASFPTAKYITEPEMVFEEHEVNEDIQPMTAFESEKEIELPKEVPEKLPEAADFGTTSSLHFVHMRGLPFQANAQDIINFFAPLKPVRITMEYSSSGKATGEADVHFETHEDAVAAMLKDRSHVHHRYIELFLNSCPKGK
target (unweighted spectral count, OC43 Probe II capture) ([3]; 24 hpi, type n_24_v): 4 | target (unweighted spectral count of the protein in the RNP capture) ([2]; […]): 14
